Source: publication PMC5793033 (ACS Omega, 2018)

Target: the molecule itself

B1: NgDapB (4-hydroxy-tetrahydrodipicolinate reductase from Neisseria gonorrhoeae) (enzyme, UniProt B4RR35 1-269, looked up)
chain: MIPLKIAIAGANGRMGRVLVEAVNNHPDTVLSGALEHSGSEALGLDAGYAVGLKTGIAISDDVDAVLAQSDVLIDFTRPEPTLKHLQKCVEKQVNIIIGTTGFDDAGKAAIRAAAEKTGIVFAANFSVGVNLTFHILDTVARVLNEGYDIEIIEGHHRHKVDAPSGTALRMGEVIAGALGRDLKQCAVYGREGHTGPRDPSTIGFATVRAGDIVGDHTALFATDGERVEITHKAGSRMTFAAGAVRAAVWVNGKTGLYDMQDVLGLNNR
- stoichiometry N: 4
